{"source": "paper PMC11881561", "about": "(Antimicrobial Agents and Chemotherapy, 2025)", "experiment_in_all_cases": "purified protein, by the assay type", "conditions_in_all_cases": "pH 7.4", "key": {"[1]": {"tested_on": "Nc1nc(/C(=C/CC(=O)O)C(=O)N[C@@H]2C(=O)N3C(C(=O)O)=CCS[C@H]23)cs1"}, "[2]": {"tested_on": "CO/N=C(\\C(=O)N[C@@H]1C(=O)N2C(C(=O)[O-])=C(C[N+]3(C)CCCC3)CS[C@H]12)c1csc(N)n1"}, "[3]": {"tested_on": "CC(C)(O/N=C(\\C(=O)N[C@@H]1C(=O)N2C(C(=O)[O-])=C(C[n+]3ccccc3)CS[C@H]12)c1csc(N)n1)C(=O)O"}}, "data": [{"substance": "KPC-2 WT (Klebsiella pneumoniae)", "values": [{"measurement": "kcat/Km", "setting": "[1]", "value": "2200 ± 240", "unit": "M⁻¹ s⁻¹"}, {"measurement": "kcat/Km", "setting": "[2]", "value": "130000 ± 4000", "unit": "M⁻¹ s⁻¹"}, {"measurement": "kcat/Km", "setting": "[3]", "value": "730 ± 130", "unit": "M⁻¹ s⁻¹"}]}]}
